In PMC8583167 (Oncoimmunology, 2021):

Molecular target: T1, mCS1-His (Mus musculus, strain , UniProt Q8BHK6)
Assay: not given

T1 sequence (Q8BHK6 23-333): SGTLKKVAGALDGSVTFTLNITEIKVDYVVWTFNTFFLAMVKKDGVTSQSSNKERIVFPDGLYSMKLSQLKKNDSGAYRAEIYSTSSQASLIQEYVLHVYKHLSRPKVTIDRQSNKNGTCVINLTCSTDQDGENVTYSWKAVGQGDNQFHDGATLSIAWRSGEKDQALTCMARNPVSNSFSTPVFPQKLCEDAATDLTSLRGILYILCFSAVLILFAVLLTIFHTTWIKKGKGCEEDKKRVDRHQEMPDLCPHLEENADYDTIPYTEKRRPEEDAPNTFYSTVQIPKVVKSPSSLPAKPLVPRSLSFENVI

| Binder | binding result |
| --- | --- |
| sdAb2 (VHH) VHH: QVQLQESGGGLVQPGGSLKLSCAASGSIASIYAMGWYRQAPGKQRELVATISSDGSTNYADSVKGRFTISRNNTDNTVCLQMNSLKPEDTALYTCITEQFLGDHTLRDWGQGTQVTVSS | binds |
| sdAb3 (VHH) VHH: QVQLQESGGGLVQPGGSLRLSCAASGSIFSIYAMDWYRQAPGKQRELVARITSDGSTNYADSVKGRFTISRDNAKNAVYLQMNSLKPEDTAVYYCVAEQSLGEHTLRDWGQGTQVTVSS | binds |
| sdAb4 (VHH) VHH: QVQLQESGGGFVQPGGSLRLSCAASGSIFSVYAMGWYRQAPGKQRELVAAITRGGSANYADSVKGRFTISRDNAKNAVYLQMNSLKPEDTAVYYCVAEQSLGEHTLRDWGQGTQVTVSS | binds |
| sdAb5 (VHH) VHH: QVQLQESGGGLVQPGGSLRLSCAVSRSIFSFYAMGWYRQAPGKERELVARIISGGSTNYADSVKGRFTIARDNAKNTVYLQMNSLKPEDTAVYYCVAEQFLNDFTLRDWGQGTQVTVSS | binds |
| sdAb6 (VHH) VHH: QVQLQESGGGLVQPGGSLRLSCAASGSIFSILAMGWYRQAPGKQRELVASVTNGGSTNYADSVKGRFTISRDNAKNTVYLQMNSLKPEDTAVYYCNVRPYSDYDSWGHGTQVTVSS | binds |
| sdAb7 (VHH) VHH: QVQLQESGGGLVQPGGSLRLSCAASGSIFSILAMGWYRQAPGKQRELVASVTNGGSTNYADSVKGRFTISRDNAKNTVYLQMNSLKPEDTAVYYCNVRPYSDYDSWGQGTQVTVSS | binds |
| sdAb8 (VHH) VHH: QVQLQESGGGLVQPGGSLRLSCAASGSIFSILAMGWYRQAPGKQRELVASVTNGGSTNYADFVKGRFTISRDNVKNTVYLQMNSLKPEDTAVYYCNVRPYSDYDYWGQGTQVTVSS | binds |
| sdAb9 (VHH) VHH: QVQLQESGGGLVQPGGSLRLSCAASGSIFSILSMGWYRQAPGKQRELVASITNGGSTNYADSVKGRFTIFRDNAKNTVDLQMNSLKPEDTAVYYCNARPPRADLWGQGTQVTVSS | binds |
| sdAb10 (VHH) VHH: QVQLQESGGGLVQPGGSLRLSCAASGSIFSIYAMGWYRQAPGKQRELVAGITSGGSTHYADSVKGRFTISRDNAKNSVYLQMNSLKPEDTAVYYCNSDLDPPSGTYYPALWSWGQGTQVTVSS | binds |

Molecular target: T1, mCS1-His
Assay: SPR

| Binder | Kd [nM] |
| --- | --- |
| anti-mCS1 sdAb1, untagged (VHH) VHH: QVQLQESGGGLVQPGGSLRLSCAASGFTFSSTAMSWARQAPGKGLEWVSSIYSDGSTSYADSMKGRSTISRDNAKNTVYLQMNSLKPEDTAVYYCAIGDTGWGRVGQGTQVTVSS | 25 |
